Common to all, as to experiment: Kd (EC50 corrected by depletion factor)
The target of one data set is PTBP3 (UniProt O95758). The method, boiled down: (§1)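 Free RNA oligos (0 nM to 30 μM) competed for 1 h at 4°C in HEK293-FT lysate (2.5 mg protein/well) before a 30 min, 4°C pulldown with the same oligos on NHS-Sepharose beads. Bound proteins were quantified by label-free LC-MS/MS and normalised to the control. Kd was found by multiplying EC50, from a four-parameter log-logistic fit, by a protein-dependent depletion factor.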

The target in a further data set is RPS18 (UniProt P62269). The method, boiled down:
as §1

Another data set has as its target T1, DDX21 (UniProt Q9NR30).
T1 sequence: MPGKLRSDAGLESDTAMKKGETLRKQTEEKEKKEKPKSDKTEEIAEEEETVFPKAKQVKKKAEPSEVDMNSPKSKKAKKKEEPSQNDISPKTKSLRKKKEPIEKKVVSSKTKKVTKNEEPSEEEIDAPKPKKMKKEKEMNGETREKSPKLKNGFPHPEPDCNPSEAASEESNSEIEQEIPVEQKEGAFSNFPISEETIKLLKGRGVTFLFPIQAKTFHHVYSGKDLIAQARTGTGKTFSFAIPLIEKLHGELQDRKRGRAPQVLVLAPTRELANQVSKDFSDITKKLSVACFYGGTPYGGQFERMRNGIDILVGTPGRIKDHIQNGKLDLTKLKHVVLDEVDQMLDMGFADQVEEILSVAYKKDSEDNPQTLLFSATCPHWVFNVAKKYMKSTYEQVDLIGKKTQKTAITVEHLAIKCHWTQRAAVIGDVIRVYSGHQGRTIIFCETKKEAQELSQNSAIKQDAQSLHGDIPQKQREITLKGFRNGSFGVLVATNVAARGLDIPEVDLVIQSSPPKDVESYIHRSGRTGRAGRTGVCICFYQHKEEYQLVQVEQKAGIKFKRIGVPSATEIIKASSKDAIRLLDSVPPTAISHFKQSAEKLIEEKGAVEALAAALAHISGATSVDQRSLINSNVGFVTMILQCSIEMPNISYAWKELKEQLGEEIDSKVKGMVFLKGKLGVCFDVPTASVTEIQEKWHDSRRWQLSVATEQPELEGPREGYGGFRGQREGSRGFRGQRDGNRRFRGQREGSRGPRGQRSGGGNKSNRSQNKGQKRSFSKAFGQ
A digest of the protocol:
as §1

In another data set the target is MRPL49 (UniProt Q13405). A digest of the protocol: as §1
In a further data set the target is T2, PATL1 (UniProt Q86TB9).
T2 sequence: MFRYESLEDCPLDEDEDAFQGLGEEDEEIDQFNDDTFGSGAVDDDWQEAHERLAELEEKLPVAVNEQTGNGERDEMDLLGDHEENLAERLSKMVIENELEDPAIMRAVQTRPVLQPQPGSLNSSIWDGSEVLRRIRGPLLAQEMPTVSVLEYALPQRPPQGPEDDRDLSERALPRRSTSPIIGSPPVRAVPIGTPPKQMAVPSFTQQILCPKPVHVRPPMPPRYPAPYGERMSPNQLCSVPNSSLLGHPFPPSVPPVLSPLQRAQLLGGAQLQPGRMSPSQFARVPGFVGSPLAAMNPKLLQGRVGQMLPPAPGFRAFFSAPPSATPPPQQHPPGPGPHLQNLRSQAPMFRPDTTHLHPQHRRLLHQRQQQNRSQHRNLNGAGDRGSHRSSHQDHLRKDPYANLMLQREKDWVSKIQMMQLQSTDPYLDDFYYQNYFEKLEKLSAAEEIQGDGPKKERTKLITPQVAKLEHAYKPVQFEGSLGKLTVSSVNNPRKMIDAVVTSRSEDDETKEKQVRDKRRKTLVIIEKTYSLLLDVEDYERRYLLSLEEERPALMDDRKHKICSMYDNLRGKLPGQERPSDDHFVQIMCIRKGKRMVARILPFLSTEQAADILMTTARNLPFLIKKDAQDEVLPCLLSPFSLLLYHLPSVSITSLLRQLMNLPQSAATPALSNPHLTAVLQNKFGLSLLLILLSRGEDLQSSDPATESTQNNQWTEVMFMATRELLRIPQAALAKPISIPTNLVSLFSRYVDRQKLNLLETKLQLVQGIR
The method, boiled down:
as §1

The target of a further data set is T3, PRPF3 (UniProt O43395).
T3 sequence: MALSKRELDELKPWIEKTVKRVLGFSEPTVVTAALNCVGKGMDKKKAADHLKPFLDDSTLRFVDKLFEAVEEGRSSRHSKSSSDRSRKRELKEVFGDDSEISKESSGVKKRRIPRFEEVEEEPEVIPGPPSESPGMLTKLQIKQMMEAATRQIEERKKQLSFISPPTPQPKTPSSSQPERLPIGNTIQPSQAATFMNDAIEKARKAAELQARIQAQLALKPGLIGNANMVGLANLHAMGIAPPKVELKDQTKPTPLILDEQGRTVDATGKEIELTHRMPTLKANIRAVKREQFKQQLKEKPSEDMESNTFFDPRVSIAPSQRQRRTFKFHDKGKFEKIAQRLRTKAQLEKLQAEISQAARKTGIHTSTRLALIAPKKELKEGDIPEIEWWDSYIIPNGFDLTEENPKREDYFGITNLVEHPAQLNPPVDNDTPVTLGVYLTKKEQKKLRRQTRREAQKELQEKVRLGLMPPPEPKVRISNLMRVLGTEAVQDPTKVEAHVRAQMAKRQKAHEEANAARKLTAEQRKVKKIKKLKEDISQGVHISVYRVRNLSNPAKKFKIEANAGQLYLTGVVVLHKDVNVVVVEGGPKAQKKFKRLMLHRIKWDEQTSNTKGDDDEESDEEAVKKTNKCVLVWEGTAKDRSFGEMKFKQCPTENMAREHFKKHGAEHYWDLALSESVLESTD
A digest of the protocol: as §1

As usually defined, the Kd is the concentration at which binding is half-saturated.

Sequence of PTBP3 (O95758 whole entry): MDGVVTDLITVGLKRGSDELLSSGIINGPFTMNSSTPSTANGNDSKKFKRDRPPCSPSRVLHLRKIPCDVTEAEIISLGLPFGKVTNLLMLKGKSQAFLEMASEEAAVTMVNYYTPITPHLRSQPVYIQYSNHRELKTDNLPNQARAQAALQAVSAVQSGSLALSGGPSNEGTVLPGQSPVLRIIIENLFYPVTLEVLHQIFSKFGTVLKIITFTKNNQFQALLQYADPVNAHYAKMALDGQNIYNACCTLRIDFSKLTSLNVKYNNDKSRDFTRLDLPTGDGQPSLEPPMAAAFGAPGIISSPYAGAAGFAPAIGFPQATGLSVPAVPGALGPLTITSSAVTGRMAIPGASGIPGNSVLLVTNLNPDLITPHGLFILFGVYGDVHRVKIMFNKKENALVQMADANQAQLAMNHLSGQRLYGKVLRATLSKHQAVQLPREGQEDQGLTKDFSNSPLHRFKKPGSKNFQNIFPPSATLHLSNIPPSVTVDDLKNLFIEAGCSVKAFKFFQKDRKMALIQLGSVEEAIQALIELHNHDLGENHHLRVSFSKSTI

AAUAAA showed a Kd in the data set with PTBP3 of 1290 nM.
Take CUGUCCU: the Kd in the data set with RPS18 was determined as 42.6 nM; with DDX21, 44.3 nM; with MRPL49, 37 nM.
For UAUUUAU, the Kd in the data set with PATL1 is 258 nM; with PRPF3, 2670 nM.

The record behind these values is the supplement of paper PMC6379048.
